Reference: the DeepSol protein solubility set

Assay: soluble on expression in E. coli; label from the status in PepcDB or PDB records

Sequence	soluble on expression in E. coli
MSLKRAVISGGAGGLGRALSDALQTRGWHVTLLDRDISAIEPSETQRVIQCDLTDPGQLAAACALAIGPQGVDLAVYNAGITQIGLFADSDEASHRRVFEINYFAAVNMARAMLGPVRQARGTHLAISSVAGFAPLYSRTSYAASKHALEGFFKSLRSEERAHGVAVQIAAPSFVATNLGNAQAQPDGIARPGSATDGMDYMTPEAAAATILRGLDRGRDMIPVGRVARLAWWINRLSPGLYQRLMESKIGREGHHHHHH	soluble
MLFDSHAHYDNKRFDEDRFEVIKKAYDSGVSYILNAAADMASSLETVSLTRKFDFIYGAVGVHPHEVAKMSDDDIEKLKDFAKEEKIVAIGEIGLDYYYDFSPREQQKLWFARQINLAKELNLPIIVHDRDAHKDVLDIVKAEQAKDVGGVFHCYSGSVEMLKDVLENNFYISVGGTLTFKNAKRVVEVVERVPLDRLLIETDCPYLTPEPHRGKRNDSSYVRLVAEKIAKIRGMSFEEVAEITTNNAKRLFGIK	not soluble
MGSDKIHHHHHHMNGHLNDCLICDGKLEYLDAAEEMECVICHKKHLNNVRCINRHYICDECHSKRGAKIILEVCRTTDSKNPIEIMQKLMAKPFIHMHGPEHHILTGAALLAAYHNSGGQLDLNKALNEIERRAKQVPGGACGFWGCCGAAISTGMFISIATGATPLSEREWSLSNLITSKVLRRISALGGPRCCKRNCFTAAKVAVEFTGEQLAVNMELPVDICCFFSPNNHECKGALCPYSPQHSNS	not soluble
MGSDKIHHHHHHMVLMPSPETIFIESGPLSARFRSDWGGRMTHLVHAEMGDILAPTQADVFEPYNWPRAGAYPLVPYHNRVYGASFVESGKTHRLLPHPALTPDAMHGPAHRRPWHVASAAEDRVTLQLNYEADDEWPFSFVAEQHFRLEPDRLIVELSIINSSDASAPVSLGWHPYLAVPLSSHAETDARLEYPLDALNVPTGNEAHPRSSRSIPAATGYTLHFRYWSTATVELDKGTLLLEADPIFEYLAVHRMEKYLCLEPVSMAAGALCLPETERESRGLRTILPEGRLSGRISLSIRG	not soluble
HMSICTSEEWQGLMQFTLPVRLCKEIELFHFDIGPFENMWPGIFVYMVHRSCGTSCFELEKLCRFIMSVKKNYRRVPYHNWKHAVTVAHCMYAILQNNHTLFTDLERKGLLIACLCHDLDHRGFSNSYLQKFDHPLAALYSTSTMEQHHFSQTVSILQLEGHNIFSTLSSSEYEQVLEIIRKAIIATDLALYFGNRKQLEEMYQTGSLNLNNQSHRDRVIGLMMTACDLCSVTKLWPVTKLTANDIYAEFWAEGDEMKKLGIQPIPMMDRDKKDEVPQGQLGFYNAVAIPCYTTLTQILPPTEPLLKACRDNLSQWEKVIRGEETATWISSPSVAQKAAASED	soluble
MLDPARSFDIIGDVHGCALTLERLLDALGYKRVAGVWRHPRRQALFLGDIVDRGPRIREALHIVHDMVEAGQAFCIMGNHEYNALGWVTPALPGSGKAYVREHTPRHARLIDETLTQFAQHPGDWHDFVNWFYQLPLFIDAGRFRLVHALEHHHHHH	not soluble
MLVEGSELQSGAQQPRTEAPQHGELQYLRQVEHIMRCGFKKEDRTGTGTLSVFGMQARYSLRDEFPLLTTKRVFWKGVLEELLWFIKGSTNAKELSSKGVRIWDANGSRDFLDSLGFSARQEGDLGPVYGFQWRHFGADYKDMDSDYSGQGVDQLQKVIDTIKTNPDDRRIIMCAWNPKDLPLMALPPCHALCQFYVVNGELSCQLYQRSGDMGLGVPFNIASYALLTYMIAHITGLQPGDFVHTLGDAHIYLNHIEPLKIQLQREPRPFPKLRILRKVETIDDFKVEDFQIEGYNPHPTIKMEMAV	soluble
MGSDKIHHHHHHMDTRKNVSGAERKIWSLIRDCSGKLEGVTETSVLEVLLIVSRVLGIRKEDLFLKDLGVSPTEEKRILELVEKRASGYPLHYILGEKEFMGLSFLVEEGVFVPRPETEELVELALELIRKYGIKTVADIGTGSGAIGVSVAKFSDAIVFATDVSSKAVEIARKNAERHGVSDRFFVRKGEFLEPFKEKFASIEMILSNPPYVKSSAHLPKDVLFEPPEALFGGEDGLDFYREFFGRYDTSGKIVLMEIGEDQVEELKKIVSDTVFLKDSAGKYRFLLLNRRSS	soluble
MSSPGGGTRFALVAGTTETAGRAGISAAGADPELMSVTPAADAELVTYGTPVRTDVTPVSPSGCPTPALVTRAAREVLGFDVTVVDGGLAEKTGAPTVSVGARPGKDIAEQDPVSTAHGAFAAARQFGQSLPADELYLGETIPGGTTTALGVLRALGEDGMVSSSLPENPTAQKSEVVAEGLQASSLEPGDAANEPKRAVRRMGDPVLATLAGLTAGAVESDTAVTLAGGSQCVAVAALVRHGGYEGPLGLATTSYVADDESADVRASVDRLDLDLTVTDPGFDRSDHVAMERFVAGEAKEGVGMGGALALADRAGIPMAEVRDRFAAIYDDLIGDAPTATAEERT	not soluble
MRGSHHHHHHTDPALRARNRTLADLDRVVALGGGHGLGRVLSSLSSLGSRLTGIVTTTDNGGSTGRIRRSEGGIAWGDMRNCLNQLITEPSVASAMFEYRFGGNGELSGHNLGNLMLKALDHLSVRPLEAINLIRNLLKVDTHLIPMSEHPVDLMAIDDQGHEVYGEVNIDQLTTPIQELLLTPNVPATREAVHAINEADLIIIGPGSFYTSLMPILLLKEIAQALRRTPAPMVYIGNLGRELSLPAANLKLESKLAIMEQYVGKKVIDAVIVGPKVDVSAVKERIVIQEVLEASDIPYRHDRQLLHNALEKALQALGGLCGR	soluble
MDPRGTKRGAEKTEVAEPRNKLPRPAPSLPTDPALYSGPFPFYRRPSELGCFSLDAQRQYHGDARALRYYSPPPTNGPGPNFDLRDGYPDRYQPRDEEVQERLDHLLCWLLEHRGRLEGGPGWLAEAIVTWRGHLTKLLTTPYERQEGWQLAASRFQGTLYLSEVETPNARAQRLARPPLLRELMYMGYKFEQYMCAGELPLLHSPLPLPRG	not soluble
MGSDKIHHHHHHMLMKGVTLRGLEVFEALAKSGSVAQAADITGLSQPAVSQQLRNLEKALGSDLVDHGRRPMVLTSAGRSFLSRTQAILSELRLAQSELTVMDLSHLPALSIGLIDDFDNDLTPRLATILADSLTQCRFKMVTASSHDIHRAMAEKDLHIGVAASTGELRTGVTEYPLVEEPFILVAPRGCITDPDDVGNQLNHLPLLRYARDQLISQQIESHLSRNKMEFDDRFEIGSHLALMAMVARRIGWAITTPLGYMRAVRFHEDIDAYALPFAGFSRRISLFAQSDWPDTVPLEVAGTVRRLTQSQMITPAINRLPWLAGQLRVIEE	not soluble
MATIRTKFRSSSAEGREGALYYQVIHNRVVRQISTGYKLFASEWDQRSEAVIPCQHPAGMERDNYLLSVGERIRRDKIRLEKAIRTLSQSGPFTADDIVIRFHDSGQEPSFNDYIRQQIVRLKRLGKIRTSETYTAALKSFSSFMKGSDILFGELSSDLLMEYEAYLKNRGNSPNTISFYMRILKAVYNRAVENGLTGQRNLFKSVYTGVEKTLKRAIHLNDIRRIKRLDLSLKPHLDFARDMFLFCFYTRGMSFVDMAYLKKGDIANGILTYRRKKTGQQLFIRWEKCMQEIIKLFCLSVQDFKVVH	not soluble
GMYEEWKIVKREAPILGNDQLIENIWKMKREDSPYDIISLHKVNLIGGGNDAVLILPGTWSSGEQLVTISWNGVHYTIPDYRKSIVLYLARNGFNVYTIDYRTHYVPPFLKDRQLSFTANWGWSTWISDIKEVVSFIKRDSGQERIYLAGESFGGIAALNYSSLYWKNDIKGLILLDGGPTKHGIRPKFYTPEVNSIEEMEAKGIYVIPSRGGPNNPIWSYALANPDMPSPDPKYKSISDFLMDSLYVTGSANPYDYPYSKKEDMFPILASFDPYWPYRLSLERDLKFDYEGILVPTIAFVSERFGIQIFDSKILPSNSEIILLKGYGHLDVYTGENSEKDVNSVVLKWLSQQR	soluble
MSLTDNSKIRVVVGMSGGVDSSVTALLLKEQGYDVIGVFMKNWDDTDEFGVCTATEDYKDVAAVADKIGIPYYSVNFEKEYWDRVFEYFLAEYRAGRTPNPDVMCNKEIKFKAFLDYAMTLGADYVATGHYAQVKRDENGTVHMLRGADNGKDQTYFLSQLSQEQLQKTLFPLGHLQKSEVREIAERAGLATAKKKDSTGICFIGEKNFKQFLSQYLPAQKGRMMTIDGRDMGEHAGLMYYTIGQRGGLGIGGQHGGDNQPWFVVGKDLSQNILYVGQGFYHEALMSNSLDASVIHFTREMPEEFTFECTAKFRYRQPDSHVAVHVRGDKAEVVFAEPQRAITPGQAVVFYDGKECLGGGMIDMAYKNGQPCQYIEGHHHHHH	soluble
MAHHHHHHMDEGLPIDASEAQLEAIRREVAQYPLLSLSLPLNKESMIVKEMEHDDAYLAQTLSLFGASPVSTKQYDFGSIRYSRRDGNCFYRCAGFRLCELIVEHPERAAEYVALLKSREESLSRLFGLFVFDFTDALAEILKGVADKTITSVAQVYNRFISDDAAYVLAALRYLISAYLQEHEEEYEPFVSGLGYGAVRDYCNAEVELVDHESDNVQLAAFAKAFNVCIKVYALDRNAGNNITEYSFNGEDNDAGDRLVVGLLYMPGHYNLLGRGPG	not soluble
MNTEIEIIATDKVSNQAAMRSVLVMEQWGNGETYSEERWVERGRQAVRQTMEGMFELGRALIILKEHTEHGRFMEIVKSQFGLGIAETSRLMSATRRFATPQMQKAAPKLMDLGKSKLLELLVEEDVTLVGLAEGEEVNGMTFDDVDRMTVRELRVALRESRENLAAKDEVMKTKTAKIDELAEKLAKKQTVVREPKAEDVGSELAMQLTSLEVGIRSQVSRLKDLFDQLNAHSEAHGISHQAKMVGTLNQIILDCEQLRESYALPTEAPTDNVPEWLGGETGEGDESGND	not soluble
MFSWLGTDDRRRKDPEVFQTVSEGLKKLYKSKLLPLEEHYRFHEFHSPALEDADFDNKPMVLLVGQYSTGKTTFIRYLLEQDFPGMRIGPEPTTDSFIAVMQGDMEGIIPGNALVVDPKKPFRKLNAFGNAFLNRFVCAQLPNPVLESISVIDTPGILSGEKQRISRGYDFAAVLEWFAERVDRIILLFDAHKLDISDEFSEVIKALKNHEDKMRVVLNKADQIETQQLMRVYGALMWSLGKIVNTPEVIRVYIGSFWSHPLLIPDNRKLFEAEEQDLFRDIQSLPRNAALRKLNDLIKRARLAKVHAYIISSLKKEMPSVFGKDNKKKELVNNLAEIYGRIEREHQISPGDFPNLKRMQDQLQAQDFSKFQPLKSKLLEVVDDMLAHDIAQLMVLVRQEESQRPIQMVKGGAFEGTLHGPFGHGYGEGAGEGIDDAEWVVARDKPMYDEIFYTLSPVDGKITGANAKKEMVRSKLPNSVLGKIWKLADIDKDGMLDDDEFALANHLIKVKLEGHELPTSCLPTSCPRPRGKLPSDGVGGHSDGQC	not soluble
MSLQEVKKTYFVSKPGTLISMMTEEEANQVTHLTLTGKINAVDFRHLRDEFKNLQVLDIANASISMYSGKEGTYPDKFYIYMPNFVPAYAFCKMENGTAKGKSTLKKIILSEKIKNIEDAAFMGCENLNICQIKKKTPPNLLPEALADSITAIFVPLGASDEYRLKNRWDNFAFIEGEPLEAKIEVGALSTLENEIQKAGLQPKEINFLTIEGKLDAADFKLIRDYMPNLVAVDIEKTNATAIPDFTFSQKKYLLRIRLPHGLKSIGQRAFSNCGRLCGTVELPESITAIEYGAFMGCDRLRYVVAHGDKITTIGDNLFGEGKNKLIYKREGHHHHHH	soluble
MKKVLIVLLVLLTSFGFSENLDKYESKRVFDKSIQFILDGNYEKLKNDTEMSRVAGNITDAAEAIFAKARPMLKEHKYKVIDVKEKKDISELTVKVEYKVYENVSQEESENFMIKFQEELDEETEEAADIYDKKVQKLLQDNIKSKGIIKDKIIKVYMDKEYGYWDLATDKNEDLLLTLFSVIDSLGLY	not soluble
